Laboratory results: patent publication WO2016008851A1 (dated 2016)
Substitutions are numbered along the chain they refer to.

B1: Antibody B1 (antibody, V domains shown)
VH: EVQLVQSGAEVKKPGASVKVSCKASGFSFTGYYMHWVRQAPGQGLEWVGLIIPHNDYTVNNQKFKGRVTMTRDTSTSTAYMELSSLRSEDTAVYYCARSDYYGAMDYWGQGTLVTVSS
VL: EIVMTQSPATLSVSPGERATLSCRASQNIGTSIHWYQQKPGQAPRLLIKYASNSIYGIPARFSGSGSGTEFTLTISSLQSEDIAVYYCQQGASWPPFTFGQGTKLEIK
B2: Antibody B3 (antibody, V domains shown)
VH: B1 VH
VL: B1 VL with N53D, I55V
B3: Antibody B4 (antibody, V domains shown)
VH: B1 VH
VL: B1 VL with N53D, I55K, Y56D
B4: Antibody A1 (antibody, V domains shown)
VH: QVQLVQSGAEVKKPGASVKVSCKATGYTFTNYWIAWVKQAPGQGLEWMGSIFPGGDYTNYNEKFKGKVTMTRDTSTSTSYMELSSLRSEDTAVYYCARPYYSNYGHFDYWGQGTLVTVSS
VL: EIVLTQSPATLSLSPGERATLSCRASESVDNSGIGFMNWYQQKPGQAPKLLIYAASNQGSGIPARFSGSGSGTDFTLTISRLEPEDFAMYYCQQNKELPWTFGGGTKLEIK
B5: Antibody A4 (antibody, V domains shown)
VH: B4 VH with N31D, K38R, K67R
VL: B4 VL with K49R, M89V, G104Q
B6: Antibody A3 (antibody, V domains shown)
VH: B4 VH with N31D, K38R, K67R, V93I
VL: B4 VL with V3I, S7F, L21I, K49R, M89V, G104Q
B7: 36C2 (original hybridoma antibody) (antibody, V domains shown)
VH: QVQLQQSGAELARPGTSLKMSCKATGYTFTNYWIAWVKQRPGYGLEWIGSIFPGGDYTNYNEKFKGKATLTADTSSSTSYMQLSSLTSEDSAIYYCTRPYYSNYGHFDYWGQGTTLTVSS
VL: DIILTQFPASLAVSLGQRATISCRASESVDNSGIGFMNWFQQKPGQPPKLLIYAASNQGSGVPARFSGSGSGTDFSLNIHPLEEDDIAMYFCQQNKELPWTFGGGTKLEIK
B8: 36C2 (recombinant chimeric antibody: mouse 36C2 variable domains, human IgG1 constant domains) (antibody, V domains shown)
VH: B7 VH
VL: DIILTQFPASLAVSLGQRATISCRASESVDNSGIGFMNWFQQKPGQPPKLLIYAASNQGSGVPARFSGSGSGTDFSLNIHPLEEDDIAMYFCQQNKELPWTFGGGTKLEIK
notes: also called chimeric antibody 36C2

What was measured:
[1] = target: recombinant cynomolgus IL-1B (cynomolgus, UniProt P79182 117-268, limits assumed); experiment: cell-based or functional assay
[2] = target: Endogenous human IL-1B (THP1 supernatants) (human, UniProt P01584 117-269); experiment: cell-based or functional assay
recombinant human IL-1B [3] = target: T1, recombinant human IL-1B (human, UniProt P01584 117-269); experiment: cell-based or functional assay
recombinant mouse IL-1B = recombinant mouse IL-1B (mouse, UniProt P10749 118-269); experiment: cell-based or functional assay
recombinant human IL-1B [4] = target: T1, recombinant human IL-1B; experiment: Kinexa, solution equilibrium titration of hIL-1B against 10 pM antibody; mean ± SEM (N = 3)
recombinant human IL-1B [5] = target: T1, recombinant human IL-1B; experiment: Kinexa

recombinant mouse IL-1B, sequence (P10749 118-269 limits assumed): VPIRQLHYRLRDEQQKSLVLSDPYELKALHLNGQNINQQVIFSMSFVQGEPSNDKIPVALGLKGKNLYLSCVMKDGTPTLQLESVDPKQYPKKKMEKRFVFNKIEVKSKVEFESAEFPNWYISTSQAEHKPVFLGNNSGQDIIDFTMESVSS
recombinant cynomolgus IL-1B, sequence (P79182 117-268 limits assumed): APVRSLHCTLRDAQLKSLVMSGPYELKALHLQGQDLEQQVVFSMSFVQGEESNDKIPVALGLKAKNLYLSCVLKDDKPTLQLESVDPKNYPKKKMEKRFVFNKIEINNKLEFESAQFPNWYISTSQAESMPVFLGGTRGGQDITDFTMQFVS

Row | Binder | IC50, rec. cyno IL-1 B, HEK blue [1] | IC90, rec. cyno IL-1 B, HEK blue [1] | IC50, Endogenous human IL-1 B (THP1 supernatants), HEK blue [2] | IC90, Endogenous human IL-1 B (THP1 supernatants), HEK blue [2] | IC50, rec. human IL-1 B, HEK blue (recombinant human IL-1B [3]) | IC50, rec. human IL-1 B, MRC-5 (IL-6 production) (recombinant human IL-1B [3]) | IC90, rec. human IL-1 B, HEK blue (recombinant human IL-1B [3]) | IC90, rec. human IL-1 B, MRC-5 (IL-6 production) (recombinant human IL-1B [3]) | IC50, rec. mouse IL-1 B, HEK blue (recombinant mouse IL-1B) | IC90, rec. mouse IL-1 B, HEK blue (recombinant mouse IL-1B) | IC50, mouse IL-1 B-induced KC release, mouse endothelial bEnd3 cells stimulated with 15 pM recombinant mouse IL-1 B (recombinant mouse IL-1B) | Kd (recombinant human IL-1B [4]) | Kd (recombinant human IL-1B [5])
1 | B1 | 0.013 nM | 0.127 nM | 0.003 nM | 0.068 nM | 0.013 nM | 0.013 nM | 0.11 nM | 0.11 nM | – | – | – | – | –
2 | B2 | 0.014 nM | 0.154 nM | 0.001 nM | 0.075 nM | 0.008 nM | 0.008 nM | 0.257 nM | 0.257 nM | – | – | – | – | –
3 | B3 | 0.02 nM | 0.101 nM | 0.007 nM | 0.091 nM | 0.018 nM | 0.018 nM | 0.098 nM | 0.098 nM | – | – | – | – | –
4 | B4 | 0.03 nM | 0.167 nM | 0.009 nM | 0.15 nM | 0.033 nM | 0.01 nM | 0.329 nM | 0.131 nM | 1.14 nM | 3.25 nM | – | – | –
5 | B5 | 0.026 nM | 0.205 nM | 0.036 nM | 0.262 nM | 0.04 nM | 0.016 nM | 0.495 nM | 0.125 nM | 1.08 nM | 3.98 nM | – | – | –
6 | B6 | 0.023 nM | 0.236 nM | 0.008 nM | 0.246 nM | 0.042 nM | 0.013 nM | 0.34 nM | 0.162 nM | 0.998 nM | 3.64 nM | – | – | –
7 | B7 | – | – | – | – | – | – | – | – | – | – | 0.5 nM | – | –
8 | B8 | 0.014 nM | 0.154 nM | 0.003 nM | 0.096 nM | 0.017 nM | 0.007 nM | 0.15 nM | 0.044 nM | – | – | – | 0.00556 nM | < 0.01 nM
